This passage reports stoichiometry N (HMGN1 molecules per nucleosome) results from paper PMC8341956.

The test concerns the target nucleosome core particle (recombinant Xenopus laevis histone octamer on 147 bp 601 DNA) (Xenopus laevis). In words: native gel or EMSA; HMGN1 variants incubated with AlexaFluor488-labelled nucleosome cores (50 nM) at 0.5:1, 1:1 and 2:1 HMGN1 per nucleosome; 10 mM Tris pH 7.5, 25 mM NaCl, 25 mM KCl, 0.2 mM DTT, 4% sucrose, on ice 20-30 min; 5% native PAGE, 0.5x TBE, 4 °C. For orientation: In EMSA bound probe runs differently from free probe, usually more slowly.

Take “full-length recombinant HMGN1 (HMGN1_1–99, unmodified) (natural protein)”: the stoichiometry N (HMGN1 molecules per nucleosome) was found to be 2.
As for “semi-synthetic unmodified HMGN1 (natural protein)”, the stoichiometry N (HMGN1 molecules per nucleosome) was 2.
